Source: patent US20200165335A1 (Seagen, published 2020)
Residue numbers refer to the chain shown, from its start. Numbers in names are those of the source. Where “and” joins values, the source holds several entries; their conditions need not be identical. Equal entries are not always repeated.

Columns and labels:
human LIV-1 [1] = target: T1, human LIV-1 (human, UniProt Q13433 29-755); test: saturation binding, flow cytometry, MCF7 cells
T1 construct: also called hLIV-1; Q13433
T1 sequence: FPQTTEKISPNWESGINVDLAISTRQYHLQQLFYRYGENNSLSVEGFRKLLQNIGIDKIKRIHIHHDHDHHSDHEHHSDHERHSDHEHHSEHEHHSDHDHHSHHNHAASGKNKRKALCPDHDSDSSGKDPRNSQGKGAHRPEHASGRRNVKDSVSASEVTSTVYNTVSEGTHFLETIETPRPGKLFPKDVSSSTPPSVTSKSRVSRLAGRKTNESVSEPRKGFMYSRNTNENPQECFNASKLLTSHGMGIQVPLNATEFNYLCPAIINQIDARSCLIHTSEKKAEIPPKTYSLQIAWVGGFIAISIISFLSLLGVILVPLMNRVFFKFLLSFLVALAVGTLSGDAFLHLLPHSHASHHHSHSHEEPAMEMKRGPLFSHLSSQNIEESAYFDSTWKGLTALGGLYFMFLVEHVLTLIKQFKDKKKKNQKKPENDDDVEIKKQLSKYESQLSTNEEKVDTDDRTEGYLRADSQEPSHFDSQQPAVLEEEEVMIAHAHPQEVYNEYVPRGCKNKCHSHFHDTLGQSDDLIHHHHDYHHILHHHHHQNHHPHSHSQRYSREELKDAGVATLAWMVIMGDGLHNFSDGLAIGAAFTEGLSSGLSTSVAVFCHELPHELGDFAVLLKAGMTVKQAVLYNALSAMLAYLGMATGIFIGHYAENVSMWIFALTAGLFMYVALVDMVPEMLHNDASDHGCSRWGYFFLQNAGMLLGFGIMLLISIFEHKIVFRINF
Procedure: (§1) 1×10⁵ antigen expressing cells (either MCF7 cells (ATCC) expressing human LIV-1, a transfected CHO cell line expressing human LIV-1 or a transfected CHO cell line expressing cyno LIV-1) were aliquoted per well of a 96-well v-bottom plates. […] Cells were pelleted and washed 3× with PBS/BSA. The cells were then pelleted and resuspended in 125 μL of PBS/BSA. Fluorescence was analyzed by flow cytometry, using percent of saturated fluorescent signal to determine percent bound and to subsequently calculate apparent Kd.

human LIV-1 [2] = target: T2, human LIV-1 (UniProt Q13433 29-755); test: competition binding on CHO hLIV1 cells
T2 chain: T1 sequence

cynomolgus monkey LIV-1 [3] = target: T3, cynomolgus monkey LIV-1 (cynomolgus monkey, UniProt Q5R9M9 28-743 (Pongo abelii entry)); test: saturation binding of AF647-labelled antibody, flow cytometry, CHO (cyLIV-1) cells
T3 construct: Recombinant on transfected CHO cells; also called cyno LIV-1; cyLIV-1
T3 chain: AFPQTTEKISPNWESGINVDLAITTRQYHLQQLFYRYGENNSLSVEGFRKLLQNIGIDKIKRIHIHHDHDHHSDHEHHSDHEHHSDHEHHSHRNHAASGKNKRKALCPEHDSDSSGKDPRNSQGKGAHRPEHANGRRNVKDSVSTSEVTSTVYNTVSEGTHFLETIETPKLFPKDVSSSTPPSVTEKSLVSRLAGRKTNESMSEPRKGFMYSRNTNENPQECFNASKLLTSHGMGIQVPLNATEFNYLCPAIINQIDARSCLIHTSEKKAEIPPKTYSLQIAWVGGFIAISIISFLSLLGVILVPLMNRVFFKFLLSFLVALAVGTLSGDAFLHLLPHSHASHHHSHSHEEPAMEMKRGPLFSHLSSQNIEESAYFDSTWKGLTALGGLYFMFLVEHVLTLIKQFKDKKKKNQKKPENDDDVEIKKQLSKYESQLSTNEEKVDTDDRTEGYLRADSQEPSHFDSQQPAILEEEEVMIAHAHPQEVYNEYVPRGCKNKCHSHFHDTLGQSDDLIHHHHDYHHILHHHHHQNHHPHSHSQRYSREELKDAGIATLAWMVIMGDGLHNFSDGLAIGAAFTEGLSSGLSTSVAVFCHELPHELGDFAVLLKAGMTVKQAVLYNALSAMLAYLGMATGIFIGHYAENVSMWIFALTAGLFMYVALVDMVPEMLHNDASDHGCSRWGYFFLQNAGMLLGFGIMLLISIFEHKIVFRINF
Procedure: as §1

human LIV-1 [4] = target: T1, human LIV-1; test: saturation binding of AF647-labelled antibody, flow cytometry, MCF-7 (ATCC) cells, endogenous hLIV-1
Procedure: as §1

human LIV-1 [5] = target: T1, human LIV-1; test: saturation binding of AF647-labelled antibody, flow cytometry, 293F (hLIV-1) cells
human LIV-1 [6] = target: T2, human LIV-1; test: saturation binding, flow cytometry on MCF7 cells; AF-labeled
human LIV-1 [7] = target: T1, human LIV-1; test: saturation binding, flow cytometry, comparison of the cell lines of Table 1
Procedure: as §1

human LIV-1 [8] = target: T1, human LIV-1; test: saturation binding of AF647-labelled antibody, flow cytometry, CHO (hLIV-1) cells
Procedure: as §1

human LIV-1 [9] = target: T2, human LIV-1; test: saturation binding on CHO cells; apparent Kd
cynomolgus monkey LIV-1 [10] = target: T3, cynomolgus monkey LIV-1; test: saturation binding of AF647-labelled antibody, flow cytometry, CHO cyLIV-1 cells
Procedure: as §1, with “cells” for “cells (ATCC)”, “LIV-1, 293F cells,” for “LIV-1,”, “cytometery,” for “cytometry,”
(§2) The KD for the murine Liv1 of BR2-22a (Table 5) was determined for human LIV-1 expressed as an endogenous protein in a human breast cancer cell line, in 293F cells or as a recombinant protein in a CHO cell line. The KD for BR2-22a was also determined for cyno LIV-1 expressed as a recombinant protein in a CHO cell line.

human LIV-1 [11] = target: T2, human LIV-1; test: competition binding
human LIV-1 [12] = target: T1, human LIV-1; test: saturation binding of AF647-labelled antibody, flow cytometry, CHO hLIV-1 cells
Procedure: as §1, with “cells” for “cells (ATCC)”, “LIV-1, 293F cells,” for “LIV-1,”, “cytometery,” for “cytometry,”
as §2

human LIV-1 [13] = target: T1, human LIV-1; test: saturation binding of AF647-labelled antibody, flow cytometry, MCF7 (ATCC) cells, endogenous hLIV-1
Procedure: as §1, with “cells” for “cells (ATCC)”, “LIV-1, 293F cells,” for “LIV-1,”, “cytometery,” for “cytometry,”
as §2

human LIV-1 [14] = target: T1, human LIV-1; test: saturation binding of AF647-labelled antibody, flow cytometry, 293F (hLIV-1) cells; remark: listed apart in the source
Procedure: as §1, with “cells” for “cells (ATCC)”, “LIV-1, 293F cells,” for “LIV-1,”, “cytometery,” for “cytometry,”
as §2

human LIV-1 [15] = target: T1, human LIV-1; test: competition flow cytometry, CHO cells expressing recombinant LIV-1, vs 5 nM AF647-labelled BR2-22a
Procedure: (§3) 1×10⁵ CHO cells expressing recombinant LIV-1 in PBS were aliquoted into each well of a 96-well v-bottom plates on ice. […] Cells were pelleted and washed 3 times with PBS. The cells were then pelleted and resuspended in 125 μL of PBS/BSA. Fluorescence was analyzed by flow cytometery, using percent of saturated fluorescent signal to determine percent labeled humanized BR2-22a antibody bound and to subsequently extrapolate the EC50 by fitting the data to a sigmoidal dose-response curve with variable slope.
All permutations of these five heavy chains and six light chains were then tested in a competition assay compared with BR2-22a (see FIG. 17).

human LIV-1 [16] = target: T1, human LIV-1; test: comparison of the EC50s of Table 3, CHO cells expressing human LIV-1
Procedure: as §3, with “recombinant human” for “recombinant”, “in PBS/BSA” for “in PBS”, “with PBS/BSA.” for “with PBS.”, “were” for “were then”, “flow cytometry,” for “flow cytometery,”, “labeled murine LIV-1 mAb” for “labeled humanized BR2-22a antibody”

human LIV-1 [17] = target: T1, human LIV-1; test: competition flow cytometry, CHO cells expressing human LIV-1, vs 5 nM AF647-labelled BR2-14a
Procedure: as §3, with “recombinant human” for “recombinant”, “in PBS/BSA” for “in PBS”, “with PBS/BSA.” for “with PBS.”, “were” for “were then”, “flow cytometry,” for “flow cytometery,”, “labeled murine LIV-1 mAb” for “labeled humanized BR2-22a antibody”

cynomolgus monkey LIV-1 [18] = target: T3, cynomolgus monkey LIV-1; test: EC50 determination, CHO cells expressing recombinant cyno LIV-1
Procedure: as §3, with “recombinant cyno” for “recombinant”, “in” for “into”, “were” for “were then”, “cytometry,” for “cytometery,”, “murine LIV-1 mAb” for “humanized BR2-22a antibody”

B1: murine LIV-1 monoclonal antibody BR2-14a (antibody, V domains shown)
VH: QVQLQQSGAELVRSGASVKLSCTASGFNIEDYYMHWVKQRPKQGLEWIGWIDPENGDTEYAPTFQGKATMTADTSSNTAYLQLSSLTSEDTAVYYCNVHDAHYGTWFAYWGQGTLVTVSA
VL: DVLMTQTPLSLPVSLGDQASISCRSSQSIIRNDGNTYLEWYLQKPGQSPKLLIYRVSNRFSGVPDRFSGSGSGTDFTLKISRVEAEDLGVYYCFQGSHVPYTFGGGTKLEIKR
notes: Mouse monoclonal from hybridoma ATCC PTA-5705A; also called parental murine mAb; murine LIV-1 mAb
Q: Which results are given for B1?
A: Kd (human LIV-1 [1]): 2.9 nM; EC50 (human LIV-1 [2]): 3.42 µg/mL; Kd (cynomolgus monkey LIV-1 [3]): 14 nM; Kd (human LIV-1 [4]): 2.4 nM; Kd (human LIV-1 [5]): 2.7 nM; Kd (human LIV-1 [6]): 0.8 µg/mL and 5.8 nM; fold lower dissociation constant for non-recombinant LIV-1 of a human cell line than for recombinant LIV-1 (human LIV-1 [7]): ~5 fold; Kd (human LIV-1 [8]): 12.5 nM

B2: mouse monoclonal antibody BR2-22a (antibody, mouse IgG1, V domains shown)
VH: B1 VH with Q1E, F27L, K42E, A61G, T63K, E89G, N97T, D100N
VL: DVLMTQTPLSLPVSLGDQASISCRSSQSLLHSSGNTYLEWYLQRPGQSPKPLIYKISTRFSGVPDRFSGSGSGTDFTLKISRVEAEDLGLYYCFQGSHVPYTFGGGTKLEIKR
notes: also called mAb2; parental BR2-22a
Q: What does the source list for B2?
A: Kd (human LIV-1 [9]): 1.2 nM; Kd (cynomolgus monkey LIV-1 [10]): 4.2 nM; EC50 (human LIV-1 [11]): 0.3 µg/mL; Kd (human LIV-1 [12]): 1.5 nM; Kd (human LIV-1 [13]): 1.1 nM; Kd (human LIV-1 [14]): 0.5 nM

B3: humanized BR2-22a antibody HELC (antibody, V domains shown)
VH: QVQLVQSGAEVKKPGASVKVSCKASGLNIEDYYMHWVRQAPGQGLEWIGWIDPENGDTEYGPKFQGKATMTADTSINTAYMELSRLRSDDTAVYYCTVHNAHYGTWFAYWGQGTLVTVSS
VL: DVVMTQSPLSLPVTLGQPASISCRSSQSLLHSSGNTYLEWFLQRPGQSPRRLIYKISTRFSGVPDRFSGSGSGTDFTLKISRVEAEDVGVYYCFQGSHVPYTFGGGTKVEIKR
notes: also called hLIV-22 HE + hLIV-22 LC
Q: For B3, which EC50 (human LIV-1 [15]) is on record?
A: 65.7 µg/mL

B4: humanized BR2-22a antibody HELF (antibody, V domains shown)
VH: B3 VH
VL: B3 VL with F41Y, R50K, R51P
notes: 15 backmutations; also called hLIV-22 HE + hLIV-22 LF; HELF historic control
Q: Which EC50 (human LIV-1 [15]) does the source give for B4 here?
A: 0.3 µg/mL

B5: humanized BR2-14a antibody HELE (antibody, V domains shown)
VH: B3 VH with L27F, G61A, K63T, T97N, N100D
VL: B3 VL with L29I, L30I, H31R, S32N, S33D, L42Q, R51L, K55R, I56V, T58N
notes: also called hLIV-1 HE + hLIV-1 LE
Q: Which “fold better binding than the next humanized antibody HBLF” value (human LIV-1 [16]) does the source give for B5 here?
A: ≥ 2 fold

Q: And the EC50 (human LIV-1 [17])?
A: 0.3 µg/mL

B6: humanized BR2-14a antibody HBLB S239C (antibody, human IgG1, kappa, V domains shown)
VH: QVQLVQSGAEVKKPGASVKVSCKASGYTIEDYYMHWVRQAPGQGLEWMGWIDPENGDTEYAPTFQGRVTMTRDTSINTAYMELSRLRSDDTAVYYCARHDAHYGTWFAYWGQGTLVTVSS
VL: B3 VL with L29I, L30I, H31R, S32N, S33D, F41Y, L42Q, K55R, I56V, T58N
notes: also called LIV-14d; hLIV-14 HBLB S239C
Q: For B6, which EC50 (human LIV-1 [2]) is on record?
A: 0.419 µg/mL

Q: Does B6 bind (cynomolgus monkey LIV-1 [18])?
A: binds

B7: humanized BR2-22a antibody HELG (antibody, V domains shown)
VH: B3 VH
VL: B3 VL with F41Y, L42Q, R51P
notes: also called hLIV-22 HE + hLIV-22 LG
Q: Which EC50 (human LIV-1 [15]) does the source give for B7 here?
A: 0.2 µg/mL

B8: humanized BR2-22a antibody HFLG (antibody, V domains shown)
VH: B6 VH with Y27L, A61G, T63K, N77S, R98V, D100N
VL: B3 VL with F41Y, L42Q, R51P
notes: also called hLIV-22 HF + hLIV-22 LG
Q: For B8, which EC50 (human LIV-1 [15]) is on record?
A: 0.8 µg/mL

B9: humanized BR2-22a antibody HELE (antibody, V domains shown)
VH: B3 VH
VL: B3 VL with L42Q, R51P
notes: also called hLIV-22 HE + hLIV-22 LE
Q: How did the EC50 (human LIV-1 [15]) turn out when B9 was run?
A: 25.1 µg/mL

B10: humanized BR2-22a antibody HFLF (antibody, V domains shown)
VH: B6 VH with Y27L, A61G, T63K, N77S, R98V, D100N
VL: B3 VL with F41Y, R50K, R51P
notes: also called hLIV-22 HF + hLIV-22 LF
Q: For B10, which EC50 (human LIV-1 [15]) is on record?
A: 0.8 µg/mL

B11: humanized BR2-22a antibody HGLF (antibody, V domains shown)
VH: B6 VH with Y27L, A61G, T63K, R98V, D100N
VL: B3 VL with F41Y, R50K, R51P
notes: also called hLIV-22 HG + hLIV-22 LF
Q: Which EC50 (human LIV-1 [15]) does the source give for B11 here?
A: 0.4 µg/mL
